Reference: patent publication US20210206877A1 (Genentech, published 2021)
Read-outs that look alike come from different tables or passages of the source.

B1: 5894 (antibody, V domains shown)
VH: QVQLVQSGAEVKKPGSSVKVSCKASGGTFSGYAISWVRQAPGQGLEWMGNIIPGFGTANYAQKFQGRVTITADESTSTAYMELSSLRSEDTAVYYCARSGGTKYGMLDVWGQGTMVTVSS
VL: EIVMTQSPATLSVSPGERATLSCRASQSVGSNLAWYQQKPGQAPRLLIYGASTRATGIPARFSGSGSGTEFTLTISSLQSEDFAVYYCQQLYTWPPRTFGGGTKVEIK
B2: 5644 (antibody, V domains shown)
VH: QLQLQESGPGLVKPSETLSLTCTVSGGSISSSSYYWGWIRQPPGKGLEWIGSIYYSGSTYYNPSLKSRVTISVDTSKNQFSLKLSSVTAADTAVYYCARVGHGISYFDLWGRGTLVTVSS
VL: EIVLTQSPATLSLSPGERATLSCRASQSVSSYLAWYQQKPGQAPRLLIYDASKRATGIPARFSGSGSGTDFTLTISSLEPEDFAVYYCQQVYTWPPRTFGGGTKVEIK
B3: 5891 (antibody, V domains shown)
VH: QVQLVQSGAEVKKPGSSVKVSCKASGGTFSSYAISWVRQAPGQGLEWMGNIIPIFGPANYAQKFQGRVTITADESTSTAYMELSSLRSEDTAVYYCARSGGTKYGMLDVWGQGTMVTVSS
VL: EIVMTQSPATLSVSPGERATLSCRASQSVGSNLAWYQQKPGQAPRLLIYGASTRATGIPARFSGSGSGTEFTLTISSLQSEDFAVYYCQQLYTWPPRTFGGGTKVEIK
B4: 5897 (antibody, V domains shown)
VH: QLQLQESGPGLVKPSETLSLTCTVSGGSISWSSYYWSWIRQPPGKGLEWIGSIYKSGRTYYNPSLKSRVTISVDTSKNQFSLKLSSVTAADTAVYYCARVGHGISYFDLWGRGTLVTVSS
VL: EIVLTQSPATLSLSPGERATLSCRASQSVSSYLAWYQQKPGQAPRLLIYDASNRATGIPARFSGSGSGTDFTLTISSLEPEDFAVYYCQQSLTWPPRTFGGGTKVEIK
B5: 5896 (antibody, V domains shown)
VH: QLQLQESGPGLVKPSETLSLTCTVSGGSISSSSYYWGWIRQPPGKGLEWIGSIYRSGSTYYNPSLKSRVTISVDTSKNQFSLKLSSVTAADTAVYYCARVGHGISYFDLWGRGTLVTVSS
VL: EIVLTQSPATLSLSPGERATLSCRASQSVSSYLAWYQQKPGQAPRLLIYDASNRATGIPARFSGSGSGTDFTLTISSLEPEDFAVYYCQQSLTWPPRTFGGGTKVEIK
B6: 5884 (antibody, V domains shown)
VH: QVQLVQSGAEVKKPGSSVKVSCKASGGTFSGYGISWVRQAPGQGLEWMGNIIPGFGTANYAQKFQGRVTITADESTSTAYMELSSLRSEDTAVYYCARSGGTKYGMLDVWGQGTMVTVSS
VL: EIVMTQSPATLSVSPGERATLSCRASQSVSSNLAWYQQKPGQAPRLLIYGASTRATGIPARFSGSGSGTEFTLTISSLQSEDFAVYYCQQLILWPPRTFGGGTKVEIK
B7: 6299 (antibody, V domains shown)
VH: QVQLVQSGAEVKKPGSSVKVSCKASGGTLSGYAISWVRQAPGQGLEWMGNIIPGFGTANYAQKSQGRVTITADESTSTAYMELSSLRSEDTAVYYCARSGGTRYGMLDVWGQGTMVTVSS
VL: EIVMTQSPATLSVSPGERATLSCRASQSVGSNLAWYQQKPGQAPRLLIYGASTRATGIPARFSGSGSGTEFTLTISSLQSEDFAVYYCQQSYLWPPRTFGGGTKVEIK
B8: 5905 (antibody, V domains shown)
VH: QLQLQESGPGLVKPSETLSLTCTVSGGSISWSSYYWSWIRQPPGKGLEWIGSIYRSGRTYYNPSLKSRVTISVDTSKNQFSLKLSSVTAADTAVYYCARVGHGISYFDLWGRGTLVTVSS
VL: EIVLTQSPATLSLSPGERATLSCRASQSVSSYLAWYQQKPGQAPRLLIYDASKRATGIPARFSGSGSGTDFTLTISSLEPEDFAVYYCQQVYTWPPRTFGGGTKVEIK
B9: 5890 (antibody, V domains shown)
VH: QVQLVQSGAEVKKPGSSVKVSCKASGGTFSSYAISWVRQAPGQGLEWMGNIIPGFGTANYAQKFQGRVTITADESTSTAYMELSSLRSEDTAVYYCARSGGTKYGMLDVWGQGTMVTVSS
VL: EIVMTQSPATLSVSPGERATLSCRASQSVGSNLAWYQQKPGQAPRLLIYGASTRATGIPARFSGSGSGTEFTLTISSLQSEDFAVYYCQQLYTWPPRTFGGGTKVEIK
B10: 5903 (antibody, V domains shown)
VH: QLQLQESGPGLVKPSETLSLTCTVSGGSISSSSYYWGWIRQPPGKGLEWIGMIYYSGSTWYNPSLKSRVTISVDTSKNQFSLKLSSVTAADTAVYYCARVGHGISYFDLWGRGTLVTVSS
VL: EIVLTQSPATLSLSPGERATLSCRASQSVSSYLAWYQQKPGQAPRLLIYDASKRATGIPARFSGSGSGTDFTLTISSLEPEDFAVYYCQQVYTWPPRTFGGGTKVEIK
B11: 5888 (antibody, V domains shown)
VH: QVQLVQSGAEVKKPGSSVKVSCKASGGTFWKYAISWVRQAPGQGLEWMGNIIPGFGTANYAQKFRGRVTITADESTSTAYMELSSLRSEDTAVYYCARSGGTKYGMLDVWGQGTMVTVSS
VL: EIVMTQSPATLSVSPGERATLSCRASQSVSSNLAWYQQKPGQAPRLLIYGASTRATGIPARFSGSGSGTEFTLTISSLQSEDFAVYYCQQLILWPPRTFGGGTKVEIK
B12: 5892 (antibody, V domains shown)
VH: QVQLVQSGAEVKKPGSSVKVSCKASGGTFSSYAISWVRQAPGQGLEWMGNIIPIFGTATYAQKFQGRVTITADESTSTAYMELSSLRSEDTAVYYCARSGGTKYGMLDVWGQGTMVTVSS
VL: EIVMTQSPATLSVSPGERATLSCRASQSVGSNLAWYQQKPGQAPRLLIYGASTRATGIPARFSGSGSGTEFTLTISSLQSEDFAVYYCQQLYTWPPRTFGGGTKVEIK
B13: 5887 (antibody, V domains shown)
VH: QVQLVQSGAEVKKPGSSVKVSCKASGGTFRGYAISWVRQAPGQGLEWMGNIIPGFGTANYAQKFQGRVTITADESTSTAYMELSSLRSEDTAVYYCARSGGTKYGMLDVWGQGTMVTVSS
VL: EIVMTQSPATLSVSPGERATLSCRASQSVSSNLAWYQQKPGQAPRLLIYGASTRATGIPARFSGSGSGTEFTLTISSLQSEDFAVYYCQQLILWPPRTFGGGTKVEIK
B14: 5893 (antibody, V domains shown)
VH: QVQLVQSGAEVKKPGSSVKVSCKASGGTFRGYAISWVRQAPGQGLEWMGNIIPGFGTANYAQKFQGRVTITADESTSTAYMELSSLRSEDTAVYYCARSGGTKYGMLDVWGQGTMVTVSS
VL: EIVMTQSPATLSVSPGERATLSCRASQSVGSNLAWYQQKPGQAPRLLIYGASTRATGIPARFSGSGSGTEFTLTISSLQSEDFAVYYCQQLYTWPPRTFGGGTKVEIK
B15: 5539 (antibody, V domains shown)
VH: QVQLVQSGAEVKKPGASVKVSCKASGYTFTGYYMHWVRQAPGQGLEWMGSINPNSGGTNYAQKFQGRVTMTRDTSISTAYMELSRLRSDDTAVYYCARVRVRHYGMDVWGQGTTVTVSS
VL: DIQMTQSPSSLSASVGDRVTITCRASQSISSYLNWYQQKPGKAPKLLIYAASSLQSGVPSRFSGSGSGTDFTLTISSLQPEDFATYYCQQPLSHPRTFGGGTKVEIK

What was measured:
Assay in all cases: cell-based or functional assay
human BACE1 ECD = human BACE1 ECD (human, UniProt P56817)
murine BACE1 ECD = target: murine BACE1 ECD
[1] = target: T1, BACE1 ECD (as used in the enzyme activity assay) (UniProt P56817 22-457, limits assumed)
[2] = target: T2, BACE1 endogenous to primary cortical neurons from E16.5 CD1 mice (mouse, UniProt P56818 46-501)
[3] = target: T1, BACE1 ECD (as used in the enzyme …); remark: listed apart in the source
[4] = target: T2, BACE1 endogenous to primary cortical …; remark: listed apart in the source
[5] = target: T2, BACE1 endogenous to primary cortical …; remark: listed apart in the source
Throughout, for % inhibition, FRET short substrate assay (negative = activation): test concentration or dose not given here.

murine BACE1 ECD, sequence (single chain, as listed by the source limits assumed): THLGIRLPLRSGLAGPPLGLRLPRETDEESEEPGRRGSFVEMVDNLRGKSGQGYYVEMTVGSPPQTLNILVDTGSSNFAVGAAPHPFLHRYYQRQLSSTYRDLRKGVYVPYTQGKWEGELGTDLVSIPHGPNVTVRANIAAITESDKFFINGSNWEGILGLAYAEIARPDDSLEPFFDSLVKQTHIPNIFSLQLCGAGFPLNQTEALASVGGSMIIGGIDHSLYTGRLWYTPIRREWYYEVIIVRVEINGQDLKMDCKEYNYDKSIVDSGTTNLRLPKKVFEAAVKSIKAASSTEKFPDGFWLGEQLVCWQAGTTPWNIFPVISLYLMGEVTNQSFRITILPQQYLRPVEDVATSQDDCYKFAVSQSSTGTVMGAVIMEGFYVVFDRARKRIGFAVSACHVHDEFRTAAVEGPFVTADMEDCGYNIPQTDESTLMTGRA
T1 sequence (P56817 22-457 limits assumed): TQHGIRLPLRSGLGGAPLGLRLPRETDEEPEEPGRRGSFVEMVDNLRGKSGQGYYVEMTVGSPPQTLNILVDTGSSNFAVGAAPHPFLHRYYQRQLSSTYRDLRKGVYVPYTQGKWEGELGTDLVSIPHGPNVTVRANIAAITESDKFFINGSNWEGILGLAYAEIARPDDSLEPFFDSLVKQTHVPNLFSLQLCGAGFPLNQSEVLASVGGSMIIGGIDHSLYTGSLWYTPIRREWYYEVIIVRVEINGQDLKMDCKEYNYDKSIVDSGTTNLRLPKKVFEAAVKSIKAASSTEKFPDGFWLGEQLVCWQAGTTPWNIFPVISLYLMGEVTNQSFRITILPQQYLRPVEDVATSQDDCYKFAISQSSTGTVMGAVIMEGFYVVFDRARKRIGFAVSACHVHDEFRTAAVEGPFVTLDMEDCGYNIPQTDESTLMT
human BACE1 ECD, sequence (P56817 22-457): as the sequence (P56817 22-457 limits assumed) above
T2 sequence (P56818 46-501): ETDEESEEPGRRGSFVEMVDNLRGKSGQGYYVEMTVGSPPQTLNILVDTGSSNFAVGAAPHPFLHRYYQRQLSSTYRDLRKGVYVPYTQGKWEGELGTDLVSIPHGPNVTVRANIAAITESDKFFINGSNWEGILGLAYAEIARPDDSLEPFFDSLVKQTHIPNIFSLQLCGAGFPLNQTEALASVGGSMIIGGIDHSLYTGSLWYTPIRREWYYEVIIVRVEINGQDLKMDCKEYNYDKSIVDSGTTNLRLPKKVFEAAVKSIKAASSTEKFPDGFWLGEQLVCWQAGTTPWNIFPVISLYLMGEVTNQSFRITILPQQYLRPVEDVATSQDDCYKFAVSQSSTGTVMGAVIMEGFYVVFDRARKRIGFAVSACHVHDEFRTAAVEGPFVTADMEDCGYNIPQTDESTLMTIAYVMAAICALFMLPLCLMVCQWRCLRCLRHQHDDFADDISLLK

Binder | % inhibition, FRET short substrate assay (negative = activation) (human BACE1 ECD) | % inhibition, FRET short substrate assay (negative = activation) (murine BACE1 ECD) | EC50, FRET short substrate assay [1] | EC50, HTRF long substrate assay [1] | max % inhibition, Abeta x-40 in mouse cortical neurons [2] | other results
B1 | 69% | 69% | 8.58 nM | 1.79 nM | 78% | IC50, Abeta x-40 in mouse cortical neurons (row 5894*, second run) [2]: 5.43 nM
B2 | 65% | 63% |  |  | 72% | EC50, FRET short substrate assay [3]: 8.47 nM; EC50, HTRF long substrate assay [3]: 8.75 nM
B3 | 71% | 70% | 12.4 nM | 3.03 nM | 78% | 
B4 | 1% | -3% | 0.528 nM | 1.39 nM | 62% | 
B5 | -4% | -3% | 3.35 nM | 3.46 nM | 65% | IC50, Abeta x-40 in mouse cortical neurons (row 5896*, second run) [2]: 5.72 nM
B6 | -102% | -243% |  |  | 83% | EC50, FRET short substrate assay [3]: 0.478 nM; EC50, HTRF long substrate assay [3]: 7.76 nM; IC50, Abeta x-40 in mouse cortical neurons (row 5884*, second run) [2]: 3.51 nM
B7 |  |  |  |  |  | max % inhibition, Abeta x-40 in mouse cortical neurons [4]: 70%
B8 | 65% | 72% | 1.33 nM | 3.91 nM |  | IC50, Abeta x-40 in mouse cortical neurons (row 5905*, second run) [5]: 0.83 nM; max % inhibition, Abeta x-40 in mouse cortical neurons [5]: 65%
B9 | 66% | 69% | 32.4 nM | 4.06 nM | 77% | 
B10 |  |  | 3.12 nM | 1.38 nM |  | IC50, Abeta x-40 in mouse cortical neurons (row 5903*, second run) [5]: 7.27 nM; max % inhibition, Abeta x-40 in mouse cortical neurons [5]: 72%
B11 | -86% | -183% | 0.602 nM | 2.5 nM | 82% | 
B12 | 64% | 64% | 16.4 nM | 1.19 nM | 73% | 
B13 | -102% | -230% |  |  | 75% | EC50, FRET short substrate assay [3]: 0.482 nM; EC50, HTRF long substrate assay [3]: 5.5 nM; IC50, Abeta x-40 in mouse cortical neurons (row 5887*, second run) [2]: 2.53 nM
B14 | 72% | 69% | 8.84 nM | 3.59 nM | 73% | 
B15 | 42% | 23% |  |  | 45% | EC50, HTRF long substrate assay [3]: 0.694 nM
